Results reported in patent publication US20250277030A1, “ANTI-NAPI2B ANTIBODIES AND METHODS OF USE” (Zymeworks BC Inc., priority 2022, published 2025).

Molecular target: Insulin (Sigma-Aldrich, 19278) (UniProt P01308)
Assay: non-specific binding ELISA, insulin coated at 5 µg/mL, antibody at 100 nM

Insulin (Sigma-Aldrich, 19278), sequence (P01308 25-54 limits assumed, chain 1 of 2): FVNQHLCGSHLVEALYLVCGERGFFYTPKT
Insulin (Sigma-Aldrich, 19278), sequence (P01308 90-110 limits assumed, chain 2 of 2): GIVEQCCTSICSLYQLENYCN

B1: v29452 humanized anti-NaPi2b antibody (H1L3) (antibody, human IgG1, kappa, V domains shown)
VH: QVQLVQSGAEVKKPGASVKVSCKASGFTFTSYNVHWVRQAPGQGLEWMGAISPGNGDLSYAQKFQGRVTMTRDTSTSTVYMELSSLRSEDTAVYYCARGRTGMGAVDYWGQGTLVTVSS
VL: DVQMTQSPSSLSASVGDRVTITCRASQDVYSYLNWYQQKPGKAVKLLIYYTSRLQSGVPSRFSGSGSGTDYTLTISSLQPEDIATYYCQQYNIFPWTFGQGTKLEIKR
- NS-ELISA binding score (ratio of signal between antibody-treated and untreated): 1.03
